Here are results for 20 molecules from US20220089698A1.

Substitutions are numbered along the chain they refer to.

Sequences and labels used below:
B1: 2.3.7-1 (antibody, human IgG1, kappa, V domains shown)
VH: QVHLSQSGAAVTKPGASVRVSCEASGYNIRDYFIHWWRQAPGQGLQWVGWINPKTGQPNNPRQFQGRVSLTRHASWDFDTFSFYMDLKAVRSDDTAIYFCARQRSDYWDFDVWGSGTQVTVSS
VL: DIQMTQSPSSLSARVGDRATITCQANGYLNWYQQRRGKAPKLLIYDGSKLERGVPARFSGSRWGQEYTLTISSLQPEDVATYFCQVYEFFGPGTRLDLKR
B2: 3.1.17-1 (antibody, human IgG1, kappa, V domains shown)
VH: B1 VH with H3Q, S5L, V90L, I97V
VL: B1 VL with R18T, S61R, T68H, S72N, S73N
B3: 3.1.18-1 (antibody, human IgG1, kappa, V domains shown)
VH: B1 VH with H3Q, S5L, V90L, I97V
VL: B1 VL with T68H
B4: 2.3.17-1 (antibody, human IgG1, kappa, V domains shown)
VH: B1 VH
VL: B1 VL with R18T, S61R, T68H, S72N, S73N
B5: 2.2.17-1 (antibody, human IgG1, kappa, V domains shown)
VH: B1 VH with N28K, Y32H
VL: B1 VL with R18T, S61R, T68H, S72N, S73N
B6: 2.2.18-1 (antibody, human IgG1, kappa, V domains shown)
VH: B1 VH with N28K, Y32H
VL: B1 VL with T68H
B7: 1.1.78-1 (antibody, human IgG1, kappa, V domains shown)
VH: B1 VH with H3Q, S5L, V90L, I97V
VL: B1 VL with R14S, R18T, A56S, S61R, T68H, S72N, S73N, V79I
B8: 2.3.18-1 (antibody, human IgG1, kappa, V domains shown)
VH: B1 VH
VL: B1 VL with T68H
B9: 1.1.102-1 (antibody, human IgG1, kappa, V domains shown)
VH: B1 VH with H3Q, S5L, V90L, I97V
VL: B1 VL with R14S, A56S, T68H, V79I
B10: 1.52.90-1 (antibody, V domains shown)
VH: B1 VH with H3Q, S5L, W76F, V90L, I97V
VL: B1 VL with R14S, A56S, T68N, V79I
B11: 1.13.17-1 (antibody, human IgG1, kappa, V domains shown)
VH: B1 VH with H3Q, S5L, I34M, W37V, V90L, I97V
VL: B1 VL with R14S, R18T, A19V, A56S, S61R, T68N, S72N, S73N, V79I
B12: 1.12.17-1 (antibody, human IgG1, kappa, V domains shown)
VH: B1 VH with H3Q, S5L, W37V, V90L, I97V
VL: B1 VL with R14S, R18T, A19V, A56S, S61R, T68N, S72N, S73N, V79I
B13: 1.14.17-1 (antibody, human IgG1, kappa, V domains shown)
VH: B1 VH with H3Q, S5L, I34M, W37V, F83A, V90L, I97V
VL: B1 VL with R14S, R18T, A19V, A56S, S61R, T68N, S72N, S73N, V79I
B14: 1.34.35-1 (antibody, human IgG1, kappa, V domains shown)
VH: B1 VH with H3Q, S5V, A10E, T12K, E23K, S69T, V90L, I97V, S105T
VL: DIQMTQSPSSLSASVGDRVTITCQANGYLNWYQQKPGKAPKLLIYDGSNLETGVPSRFSGSRWGQEYTLTISSLQPEDIATYFCQVYEFVGPGTNLDIKR
B15: 1.33.35-1 (antibody, human IgG1, kappa, V domains shown)
VH: B1 VH with H3Q, S5V, A10E, T12K, E23K, S69T, V90L, I97T
VL: B14 VL
B16: 1.31.35-1 (antibody, human IgG1, kappa, V domains shown)
VH: B1 VH with H3Q, S5V, A10E, V90L, I97T
VL: B14 VL
B17: 1.1.35-1 (antibody, human IgG1, kappa, V domains shown)
VH: B1 VH with H3Q, S5L, V90L, I97V
VL: B14 VL
B18: 1.32.35-1 (antibody, human IgG1, kappa, V domains shown)
VH: B1 VH with H3Q, S5V, A10E, V90L, I97V, S105T
VL: B14 VL
B19: 1.35.35-1 (antibody, human IgG1, kappa, V domains shown)
VH: QVQLVQSGAEVKKPGASVRVSCKASGYNIRDYFMHWWRQAPGQGLQWVGWINPKTGQPNNPRQFQGRVTMTRHASWDFDTFSFYMDLSRLRSDDTATYFCARQRTDYWDFDVWGQGTMVTVSS
VL: B14 VL
B20: 1.36.35-1 (antibody, human IgG1, kappa, V domains shown)
VH: B19 VH with F83A
VL: B14 VL

The first test addresses HIV-1 envelope glycoprotein (gp120) of virus 7141 (HIV-1). Nature of the test: cell-based or functional assay.
B1 gave a Neutralization IC50 of 5.08 µg/mL.
The same measure, in the same setting: the result for B2 reads 25.5 µg/mL; that for B3, greater than 9.8 µg/mL.
Still for that read-out and setting: the figure for B4 is 31.3 µg/mL; for B5 it is 6.28 µg/mL.
In the case of B6, the Neutralization IC50 stood at 5.04 µg/mL.
Same read-out and setting: the figure for B7 is 29.5 µg/mL; for B8 it is greater than 23 µg/mL.
On the same count and under the same terms, the figure for B9 is 22.7 µg/mL.

Another test concerns the target HIV-1 envelope glycoprotein (gp120) of virus VS001 (HIV-1). Nature of the test: cell-based or functional assay.
B1 showed a Neutralization IC50 of 0.47 µg/mL.
On the same count and under the same terms, the result for B2 reads 2.21 µg/mL; that for B3, 3.52 µg/mL.
As for B4, the Neutralization IC50 amounted to 4.54 µg/mL.
The same measure, in the same setting: the figure for B5 is 4.38 µg/mL; for B6 it is 2.51 µg/mL; for B7 it is 3.3 µg/mL.
The same measure, in the same setting: the result for B8 reads 2.37 µg/mL; that for B9, 3 µg/mL.

In a further test the target is HIV-1 envelope glycoprotein (gp120) of virus 92US727 (HIV-1). The experiment in a line: cell-based or functional assay.
Turning to B1, the Neutralization IC50 was greater than 50 µg/mL.
B2 displayed a Neutralization IC50 greater than 50 µg/mL.
On the same count and under the same terms, the result for B3 reads greater than 9.8 µg/mL; that for B4, greater than 50 µg/mL.
On the same count and under the same terms, the figure for B5 is greater than 50 µg/mL.
B6 showed a Neutralization IC50 greater than 34 µg/mL.
In turn, B7 registered a Neutralization IC50 greater than 50 µg/mL.
Regarding B8, the Neutralization IC50 is greater than 23 µg/mL.
With B9, the Neutralization IC50 was greater than 50 µg/mL.

The target in another test is 152 patient-derived subtype B viruses obtained from pre-ART plasma. The experiment in a line: cell-based or functional assay.
In turn, B10 showed a Breadth (% viruses neutralized with an IC95 ≤ 50 µg/mL) of 78%, a Geomean IC95 (neutralization) of 4.56 µg/mL and a Median IC95 (neutralization) of 4.42 µg/mL.

The next test concerns the target BSA (UniProt P02769). The experiment in a line: single-point ELISA.
Molecule B11 came in with an ELISA (A450) of 0.06 A450.
The same measure, in the same setting: the result for B12 reads 0.06 A450.
Molecule B13 registered an ELISA (A450) of 0.1 A450.
On to B14, for which the ELISA (A450) is 0.06 A450.
The same measure, in the same setting: the figure for B15 is 0.07 A450.
On the same count and under the same terms, the result for B16 reads 0.06 A450; that for B17, 0.08 A450; that for B18, 0.06 A450.
Take B19: the ELISA (A450) is 0.06 A450.
The same measure, in the same setting: the result for B20 reads 0.06 A450.
